Results as given in patent US11434289B2, “Anti-GPR20 antibody and anti-GPR20 antibody-drug conjugate” (DAIICHI SANKYO COMPANY, LIMITED, priority 2017, dated 2022).

B1: 04-079: rat anti-human GPR20 antibody; heavy chain SEQ ID NO: 12, light chain SEQ ID NO: 17 (antibody, listed as Rattus norvegicus)
heavy: MEWNWVFLFLLSVTAVVHSQVQLQQSGAELAKPGSSVKISCKASGYTFTSYYITWIKQTTGQGLKYIGYINPGSGHTNYNEKFKGKATLTVDKSSSTAFMQLSSLTPDDSAVYYCARGAGGFLRIISKFDYWGQGVMVTVSSAQTTAPSVYPLAPGCGDTTSSTVTLGCLVKGYFPEPVTVTWNSGALSSDVHTFPAVLQSGLYTLTSSVTSSTWPSQTVTCNVAHPASSTKVDKKVERRNGGIGHKCPTCPTCHKCPVPELLGGPSVFIFPPKPKDILLISQNAKVTCVVVDVSEEEPDVQFSWFVNNVEVHTAQTQPREEQYNSTFRVVSALPIQHQDWMSGKEFKCKVNNKALPSPIEKTISKPKGLVRKPQVYVMGPPTEQLTEQTVSLTCLTSGFLPNDIGVEWTSNGHIEKNYKNTEPVMDSDGSFFMYSKLNVERSRWDSRAPFVCSVVHEGLHNHHVEKSISRPPGK
light: METDRLLLWVLLLWVPGSTGDTVLTQSPALAVSLGQRVTISCRASKSVSTYMHWYQQRSGQQPKLLIYSASNLESGVPSRFSGSGSGTDFTLTIDPVKADDITNYYCQQSNELPYTFGAGTKLELKRADAAPTVSIFPPSTEQLATGGASVVCLMNNFYPRDISVKWKIDGTERRDGVLDSVTDQDSKDSTYSMSSTLSLTKADYESHNLYTCEVVHKTSSSPVVKSFNRNEC
modifications: SIGNAL (1)..(19); SIGNAL (1)..(20)
B2: 04-126: rat anti-human GPR20 antibody; heavy chain SEQ ID NO: 22, light chain SEQ ID NO: 27 (antibody, listed as Rattus norvegicus)
heavy: MEWNWVFLFLLSVTAEVHSQVQLRQSGAELAKPGSSVKISCKASGYTFTSYYIIWMKQTAGQGLQYVGYINPGSGHTNYNEKFKGKATLTVDKSSSTAFMQLSSLTPDDSAVYYCARGTGGFLRIISKFDYWGQGVMVTVSSAQTTAPSVYPLAPGCGDTTSSTVTLGCLVKGYFPEPVTVTWNSGALSSDVHTFPAVLQSGLYTLTSSVTSSTWPSQTVTCNVAHPASSTKVDKKVERRNGGIGHKCPTCPTCHKCPVPELLGGPSVFIFPPKPKDILLISQNAKVTCVVVDVSEEEPDVQFSWFVNNVEVHTAQTQPREEQYNSTFRVVSALPIQHQDWMSGKEFKCKVNNKALPSPIEKTISKPKGLVRKPQVYVMGPPTEQLTEQTVSLTCLTSGFLPNDIGVEWTSNGHIEKNYKNTEPVMDSDGSFFMYSKLNVERSRWDSRAPFVCSVVHEGLHNHHVEKSISRPPGK
light: METDRLLLWVLLLWVPGSTGDTVLTQSPALAVSLGQRVTISCRASKSVSTYMHWYQQRSGQQPKLLIYSASTLESGVPSRFSGSGSGTDFTLTIDPVEADDIANYYCQQSNELPYTFGAGTKLELKRADAAPTVSIFPPSTEQLATGGASVVCLMNNFYPRDISVKWKIDGTERRDGVLDSVTDQDSKDSTYSMSSTLSLTKADYESHNLYTCEVVHKTSSSPVVKSFNRNEC
modifications: SIGNAL (1)..(19); SIGNAL (1)..(20)
B3: 04-046: rat anti-human GPR20 antibody; heavy chain SEQ ID NO: 2, light chain SEQ ID NO: 7 (antibody, listed as Rattus norvegicus)
heavy: MEWNWVFLFLLSVTAEVHSQVQLQQSGAELAKPGSSVKISCKASGYTFTSYYISWIKQTTGQGLKYIGFINPGSGHTNYNEKFKGKATLTVDKSSSTAFMQLSSLTPDDSAIYYCARGAGGFLRIITKFDYWGQGVMVTVSSAQTTAPSVYPLAPGCGDTTSSTVTLGCLVKGYFPEPVTVTWNSGALSSDVHTFPAVLQSGLYTLTSSVTSSTWPSQTVTCNVAHPASSTKVDKKVERRNGGIGHKCPTCPTCHKCPVPELLGGPSVFIFPPKPKDILLISQNAKVTCVVVDVSEEEPDVQFSWFVNNVEVHTAQTQPREEQYNSTFRVVSALPIQHQDWMSGKEFKCKVNNKALPSPIEKTISKPKGLVRKPQVYVMGPPTEQLTEQTVSLTCLTSGFLPNDIGVEWTSNGHIEKNYKNTEPVMDSDGSFFMYSKLNVERSRWDSRAPFVCSVVHEGLHNHHVEKSISRPPGK
light: METDRLLLWVLLLWVPGSTGDTVLTQSPALAVSLGQRVTISCRASKSVSTYIHWYQQRSGQQPKLLIYSASNLESGVPSRFSGSGSGTDFTLTIDPVEPDDIANYYCQQINELPYTFGAGTKLELKRADAAPTVSIFPPSTEQLATGGASVVCLMNNFYPRDISVKWKIDGTERRDGVLDSVTDQDSKDSTYSMSSTLSLTKADYESHNLYTCEVVHKTSSSPVVKSFNRNEC
modifications: SIGNAL (1)..(19); SIGNAL (1)..(20)

What was measured:
[1] = target: T1, human GPR20 with EC2 substituted with a mouse GPR20-derived sequence (Homo sapiens, UniProt Q99678, Y113F); test: Cell-ELISA binding to human/mouse chimeric GPR20 (EC2 substituted); settings: hGPR20_mECD2, FIG. 22
T1 construct: expressed in transfected cells; host or cells: 293α cells, transient
Procedure: The culture supernatant of the 293a cells transfected with the expression vector prepared in Example 1)-4-1 was removed, and the culture supernatant from each hybridoma was then added to the 293a cells transfected either with pcDNA3.1-hGPR20 or pcDNA3.1. The cells were left standing at 4° C. for 1 hour. The cells in the wells were washed once with PBS (+) supplemented with 5% FBS, and thereafter, Anti-Rat IgG-Peroxidase antibody produced in rabbit (Sigma-Aldrich Co. LLC) that had been 500-fold diluted with PBS (+) supplemented with 5% FBS was added to the wells. The cells were left standing at 4° C. for 1 hour. The cells in the wells were washed three times with PBS (+) supplemented with 5% FBS, and thereafter, OPD chromogenic solution (which had been prepared by dissolving o-phenylenediamine dihydrochloride (Wako Pure Chemical Industries, Ltd.) and H2O2 in an OPD solution (0.05 M trisodium citrate, 0.1 M disodium hydrogen phosphate 12-water; pH 4.5), so that the substances became 0.4 mg/ml and 0.6% (v/v), respectively) was added in an amount of 100 μL/well to the wells. A coloring reaction was carried out with occasional stirring. Thereafter, 1 M HCl was added to the plate (100 μL/well) to terminate the coloring reaction, followed by measurement of the absorbance at 490 nm using a plate reader (ENVISION: PerkinElmer, Inc.).
In the construction of expression vectors given below, using the full-length human GPR20 expression vector pcDNA3.1-hGPR20 produced in Example 1 as a template, each PCR reaction was carried out with the primer set given below. In this reaction, KOD FX DNA polymerase (Toyobo Co., Ltd.) was used, and the reaction was carried out at 15 cycles or 10 cycles each involving 98° C. for 10 seconds, 58° C. for 30 seconds, and 68° C. for 7 minutes. Thereafter, the obtained PCR product was treated with the restriction enzyme Dpnl. […]

[2] = target: T2, human GPR20 (Homo sapiens, UniProt Q99678); test: Human GPR20-binding antibody screening by flow cytometry (hybridoma culture supernatants, transfected 293T cells); settings: hybridoma culture supernatant; 293T cells transfected with pcDNA3.1-hGPR20 vs control pcDNA3.1; FIG. 18
T2 construct: expressed in transfected cells; host or cells: 293T cells, transient, Lipofectamine 2000
Procedure: 293T cells were seeded in a 225-cm^2 flask (Sumitomo Bakelite Co., Ltd.) at 5×10^4 cells/cm^2, and the cells were then cultured overnight under conditions of 37° C. and 5% CO2 in DMEM medium supplemented with 10% FBS. pcDNA3.1-hGPR20 or pcDNA3.1 as a negative control was introduced into the 293T cells using Lipofectamine 2000, and the cells were further cultured overnight under conditions of 37° C. and 5% CO2. The 293T cells transfected with each expression vector were treated with TrypLE Express (Life Technologies Corp.), and the cells were washed with DMEM supplemented with 10% FBS, and then suspended in PBS supplemented with 5% FBS. The obtained cell suspension was used in flow cytometry analysis.
The binding specificity to human GPR20 of an antibody produced from hybridomas that had been determined to be positive by Cell-ELISA in Example 1)-4-2 was further confirmed by flow cytometry. The suspension of the transiently expressing 293T cells prepared in Example 1)-5-1 was centrifuged, and a supernatant was then removed. Thereafter, the cells were suspended by the addition of the culture supernatant from each hybridoma. The cells were left standing at 4° C. for 1 hour. The cells were washed twice with PBS supplemented with 5% FBS, and thereafter, the cells were suspended by the addition of Anti-Rat IgG FITC conjugate (Sigma-Aldrich Co. LLC) that had been 500-fold diluted with PBS supplemented with 5% FBS. […] The data was analyzed using Flowjo (Tree Star, Inc.). After dead cells were removed from analysis by gating out 7-aminoactinomycin D-positive cells, a histogram of the FITC fluorescence intensity of live cells was generated. Hybridomas producing human GPR20-binding antibodies (178 clones) were selected based on results where the histogram for the antibody shifted to the strong fluorescence intensity side in the 293T cells transfected with pcDNA3.1-hGPR20 compared with the 293T cells transfected with the control pcDNA3.1. […] The abscissa of FIG. 18 depicts clone No., and the ordinate thereof depicts the amount of the antibody bound based on MFI (mean fluorescence intensity).

T1 sequence (Q99678 whole entry Y113F): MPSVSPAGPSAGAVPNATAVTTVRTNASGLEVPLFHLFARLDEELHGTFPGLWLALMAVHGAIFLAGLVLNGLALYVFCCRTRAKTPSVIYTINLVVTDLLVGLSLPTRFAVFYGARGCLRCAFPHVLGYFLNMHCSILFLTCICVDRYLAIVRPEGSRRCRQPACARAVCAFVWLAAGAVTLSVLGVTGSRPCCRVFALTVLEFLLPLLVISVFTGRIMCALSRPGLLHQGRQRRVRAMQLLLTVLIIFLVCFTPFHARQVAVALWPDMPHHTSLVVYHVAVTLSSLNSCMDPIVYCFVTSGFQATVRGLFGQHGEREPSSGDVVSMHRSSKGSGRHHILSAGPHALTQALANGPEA
T2 sequence (Q99678 whole entry): as the sequence (Q99678 whole entry Y113F) above, with F113Y counted along it

| Molecule | binding activity after substituting EC2 of human GPR20 with that of mouse-derived GPR20 [1] | binding to human GPR20 (amount of the antibody bound based on MFI) [2] |
| --- | --- | --- |
| B1 | lost binding activity | specifically binding to human GPR20 |
| B2 | lost binding activity | specifically binding to human GPR20 |
| B3 | lost binding activity | specifically binding to human GPR20 |
